Patent US20150258192A1, “COMPOSITIONS AND METHODS FOR PREVENTING OR TREATING CHRONIC LUNG ALLOGRAFT DYSFUNCTION (CLAD) AND IDIOPATHIC PULMONARY FIBROSIS (IPF)” (priority 2014, published 2015)
No end group written: not given here.

Legend:
Experiment in all cases: Kinase Profiling Assay
Type in all cases: biochemical
Details in all cases: peptide 100 μM
Fms(h) = Fms(h) (Homo sapiens, UniProt P07333)
Summary of the method: (§1)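 Activity remaining relative to an uninhibited control was determined by scintillation counting of labeled substrate bound to a negatively charged filter. Radiolabeled phosphate came from ATP; the substrate carried positive charge. Duplicate measurements, within a 266-kinase human panel.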

Ret(h) = Ret(h) (Homo sapiens, UniProt P07949)
Summary of the method: as §1

Rsk1(h) = Rsk1(h) (Homo sapiens, UniProt Q15418)
Rsk1(h), sequence (Q15418 whole entry): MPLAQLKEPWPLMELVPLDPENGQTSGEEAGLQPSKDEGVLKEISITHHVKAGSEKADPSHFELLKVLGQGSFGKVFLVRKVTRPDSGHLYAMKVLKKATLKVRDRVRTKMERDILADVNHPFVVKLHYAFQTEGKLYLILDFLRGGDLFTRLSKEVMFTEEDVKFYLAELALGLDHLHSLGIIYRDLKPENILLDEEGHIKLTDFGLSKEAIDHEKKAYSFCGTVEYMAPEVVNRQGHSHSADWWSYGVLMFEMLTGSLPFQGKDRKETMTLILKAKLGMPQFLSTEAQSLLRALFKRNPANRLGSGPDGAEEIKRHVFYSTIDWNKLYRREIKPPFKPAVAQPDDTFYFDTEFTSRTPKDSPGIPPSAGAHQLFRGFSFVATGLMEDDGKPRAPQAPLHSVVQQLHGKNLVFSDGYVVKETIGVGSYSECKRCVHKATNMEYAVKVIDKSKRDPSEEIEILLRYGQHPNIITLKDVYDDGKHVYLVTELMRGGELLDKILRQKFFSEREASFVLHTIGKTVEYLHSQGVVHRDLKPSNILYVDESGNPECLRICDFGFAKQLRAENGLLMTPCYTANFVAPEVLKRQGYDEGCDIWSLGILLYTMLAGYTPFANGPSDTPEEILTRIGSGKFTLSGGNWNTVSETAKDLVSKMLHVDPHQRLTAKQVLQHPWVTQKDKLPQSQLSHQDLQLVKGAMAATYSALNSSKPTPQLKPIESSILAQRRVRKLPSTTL
Summary of the method: as §1

PKCγ(h) = PKCγ(h) (Homo sapiens, UniProt P05129)
Summary of the method: as §1

DCAMKL2(h) = biological target: T1, DCAMKL2(h) (Homo sapiens, UniProt Q8N568)
T1 sequence (Q8N568 1-766): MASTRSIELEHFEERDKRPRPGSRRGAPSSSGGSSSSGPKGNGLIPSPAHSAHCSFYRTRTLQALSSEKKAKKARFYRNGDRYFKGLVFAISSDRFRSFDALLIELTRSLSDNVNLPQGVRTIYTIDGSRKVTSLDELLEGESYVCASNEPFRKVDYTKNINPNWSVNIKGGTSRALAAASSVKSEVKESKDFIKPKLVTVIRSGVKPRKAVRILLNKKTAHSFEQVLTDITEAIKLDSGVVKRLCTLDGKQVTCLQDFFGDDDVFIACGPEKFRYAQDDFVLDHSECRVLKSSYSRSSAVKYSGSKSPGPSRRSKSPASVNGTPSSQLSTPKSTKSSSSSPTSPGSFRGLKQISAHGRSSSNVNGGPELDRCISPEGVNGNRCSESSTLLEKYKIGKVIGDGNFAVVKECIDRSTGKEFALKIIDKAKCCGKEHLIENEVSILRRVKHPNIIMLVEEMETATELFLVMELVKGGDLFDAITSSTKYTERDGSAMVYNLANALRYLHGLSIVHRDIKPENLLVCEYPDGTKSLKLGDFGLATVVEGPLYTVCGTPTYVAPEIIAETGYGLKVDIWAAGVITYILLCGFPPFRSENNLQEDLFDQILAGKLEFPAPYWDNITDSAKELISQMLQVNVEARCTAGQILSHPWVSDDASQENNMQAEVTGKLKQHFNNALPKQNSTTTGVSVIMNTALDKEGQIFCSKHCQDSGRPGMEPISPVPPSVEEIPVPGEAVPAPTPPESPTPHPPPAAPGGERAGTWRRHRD
Summary of the method: as §1

ASK1(h) = biological target: T2, ASK1(h) (Homo sapiens, UniProt Q99683)
T2 sequence (Q99683 1-1374): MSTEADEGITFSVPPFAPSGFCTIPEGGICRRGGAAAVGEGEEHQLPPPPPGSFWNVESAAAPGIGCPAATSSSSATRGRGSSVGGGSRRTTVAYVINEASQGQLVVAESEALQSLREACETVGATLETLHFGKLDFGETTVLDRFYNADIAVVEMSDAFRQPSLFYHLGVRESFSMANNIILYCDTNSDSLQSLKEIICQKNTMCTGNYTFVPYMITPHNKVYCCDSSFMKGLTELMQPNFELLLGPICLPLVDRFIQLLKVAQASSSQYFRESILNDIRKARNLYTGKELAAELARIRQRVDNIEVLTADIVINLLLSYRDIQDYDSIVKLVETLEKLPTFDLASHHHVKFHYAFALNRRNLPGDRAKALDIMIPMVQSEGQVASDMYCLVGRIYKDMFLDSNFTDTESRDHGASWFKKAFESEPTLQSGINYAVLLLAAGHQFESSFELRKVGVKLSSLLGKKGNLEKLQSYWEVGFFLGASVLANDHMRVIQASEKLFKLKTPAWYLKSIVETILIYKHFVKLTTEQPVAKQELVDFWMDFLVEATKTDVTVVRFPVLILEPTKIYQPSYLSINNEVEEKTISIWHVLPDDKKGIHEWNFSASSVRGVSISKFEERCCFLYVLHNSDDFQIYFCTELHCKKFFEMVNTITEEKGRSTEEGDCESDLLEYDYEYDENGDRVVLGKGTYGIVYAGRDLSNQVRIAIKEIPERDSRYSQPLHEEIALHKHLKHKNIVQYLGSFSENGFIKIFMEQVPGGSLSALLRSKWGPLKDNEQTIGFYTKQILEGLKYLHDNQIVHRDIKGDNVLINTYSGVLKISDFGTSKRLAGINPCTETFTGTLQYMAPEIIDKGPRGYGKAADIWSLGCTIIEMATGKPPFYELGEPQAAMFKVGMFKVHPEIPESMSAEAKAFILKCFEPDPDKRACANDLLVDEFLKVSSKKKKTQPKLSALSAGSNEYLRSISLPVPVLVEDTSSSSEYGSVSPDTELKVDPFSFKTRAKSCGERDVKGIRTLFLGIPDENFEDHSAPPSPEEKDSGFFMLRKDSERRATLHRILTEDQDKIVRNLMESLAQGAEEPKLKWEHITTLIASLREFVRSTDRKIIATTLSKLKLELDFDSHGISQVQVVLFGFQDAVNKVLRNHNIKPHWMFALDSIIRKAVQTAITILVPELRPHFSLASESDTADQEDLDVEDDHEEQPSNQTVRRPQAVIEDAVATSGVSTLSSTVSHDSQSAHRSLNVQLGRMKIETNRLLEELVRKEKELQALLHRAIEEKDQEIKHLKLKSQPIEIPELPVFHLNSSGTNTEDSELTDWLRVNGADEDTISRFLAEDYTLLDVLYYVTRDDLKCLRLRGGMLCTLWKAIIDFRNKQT
Summary of the method: as §1

Flt4(h) = Flt4(h) (Homo sapiens, UniProt P35916)
Flt4(h), sequence (P35916 25-1363): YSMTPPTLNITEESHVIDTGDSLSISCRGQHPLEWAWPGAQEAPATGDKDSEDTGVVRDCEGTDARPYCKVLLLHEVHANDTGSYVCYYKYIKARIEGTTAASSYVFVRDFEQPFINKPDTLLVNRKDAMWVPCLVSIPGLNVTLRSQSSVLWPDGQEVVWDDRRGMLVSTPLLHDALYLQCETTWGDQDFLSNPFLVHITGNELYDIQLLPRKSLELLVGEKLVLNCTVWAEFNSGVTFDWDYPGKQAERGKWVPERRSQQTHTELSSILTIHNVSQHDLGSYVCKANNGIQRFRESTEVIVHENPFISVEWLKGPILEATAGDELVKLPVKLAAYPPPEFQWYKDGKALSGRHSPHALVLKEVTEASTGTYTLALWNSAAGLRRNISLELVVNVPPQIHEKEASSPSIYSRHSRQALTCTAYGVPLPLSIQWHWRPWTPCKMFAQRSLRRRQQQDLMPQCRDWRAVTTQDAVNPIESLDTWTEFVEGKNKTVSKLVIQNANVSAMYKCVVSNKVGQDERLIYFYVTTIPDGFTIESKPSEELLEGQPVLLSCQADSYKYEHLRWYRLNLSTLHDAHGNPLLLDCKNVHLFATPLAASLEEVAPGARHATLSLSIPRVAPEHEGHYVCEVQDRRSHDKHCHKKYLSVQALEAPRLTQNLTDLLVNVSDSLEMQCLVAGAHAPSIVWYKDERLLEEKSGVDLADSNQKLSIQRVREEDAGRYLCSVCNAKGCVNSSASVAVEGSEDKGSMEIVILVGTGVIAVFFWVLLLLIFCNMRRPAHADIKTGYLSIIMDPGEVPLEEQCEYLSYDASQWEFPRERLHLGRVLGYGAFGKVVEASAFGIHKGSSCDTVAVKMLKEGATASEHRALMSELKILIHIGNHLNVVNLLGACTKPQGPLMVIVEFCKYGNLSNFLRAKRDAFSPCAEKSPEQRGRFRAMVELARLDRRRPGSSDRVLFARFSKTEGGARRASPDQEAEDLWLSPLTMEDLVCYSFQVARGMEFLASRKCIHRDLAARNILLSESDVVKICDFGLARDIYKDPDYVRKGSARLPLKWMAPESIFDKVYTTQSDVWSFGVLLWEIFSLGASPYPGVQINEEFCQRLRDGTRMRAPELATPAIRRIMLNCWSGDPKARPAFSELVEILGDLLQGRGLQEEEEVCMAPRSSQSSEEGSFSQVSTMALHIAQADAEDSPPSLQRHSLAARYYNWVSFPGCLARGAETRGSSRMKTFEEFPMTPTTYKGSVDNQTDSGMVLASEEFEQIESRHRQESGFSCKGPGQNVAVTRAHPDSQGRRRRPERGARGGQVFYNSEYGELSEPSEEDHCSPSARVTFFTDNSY
Summary of the method: as §1

Sequence	% activity (Fms(h)) [%]	% activity (Ret(h)) [%]	% activity (Rsk1(h)) [%]	% activity (PKCγ(h)) [%]	% activity (DCAMKL2(h)) [%]	% activity (ASK1(h)) [%]	% activity (Flt4(h)) [%]
FAKLAARLYRKALARQLGVAA [MMI-0300]	45	140	46	89	81	80	83
HRRIKAWLKKIKALARQLGVAA (Mammal) [MMI-0500]	14	174	34	6	56	-4	73
KAFAKLAARLYRKALARQLGVAA [MMI-0400]	37	145	54	79	70	69	89
YARAAARQARAKALARQLGVAA [MMI-0100]	89	108	86		146		135
YARAAARQARAKALNRQLGVA (Mammal) [MMI-0200]	92	96		101	131	101	
